From patent US11338018B2, “Adrenocorticotropic hormone-based pharmaceutical formulations and methods for fabricating and using thereof” (Harrow IP, LLC, priority 2016, dated 2022)

Assay: Comparative potency (USP corticotropin units) to assess formulation shelf stability
Type: physicochemical
Set-up: key to Potency: “Failed” refers to the potency after the testing being outside of the USP Corticotropin Units 80-125% range required by the U.S. Pharmacopeia.; “Passed” refers to the potency after the testing being within the 80-125% range required by the U.S. Pharmacopeia
Description: The term “potency” is defined in accordance with the U.S. Pharmacopeia (USP) and refers to the quantity of an active pharmaceutical component in the composition. In accordance with the requirements of the USP, the potency that is required of the corticotropin compositions described below is not less than 80.0 percent and not more than 125.0 percent of the potency stated on the label in USP corticotropin units.
Several compositions were prepared according to the methods illustrated in Examples 1-3. Table 1 provides a comparison of their respective potencies for showing shelf stability. The terms “recombinant porcine” and “recombinant human” refer to synthetic ACTH having the same amino acid sequence as the naturally occurring polypeptide derived from pigs and humans, respectively. […] Unexpectedly, it was observed that addition of L-Methionine in combination with Mannitol improved the shelf stability of Corticotropin Active Pharmaceutical Ingredient. FIGS. 1-4 show potencies of various exemplary compositions from Day 0 to Day 365.

Sequence	Potency (Cysteine, 1 mg/mL, Mannitol None, pH 4.5-6.5, after 30 days)	Potency (Cysteine, 2 mg/mL, Mannitol 50 mg/mL, pH 4.0-6.0, after 10 days, both accelerated (room temperature) and refrigerated conditions)	Potency (Cysteine, 2 mg/mL, Mannitol 50 mg/mL, pH 4.5-6.6, after 30 days)	Potency (Methionine, 2 mg/mL, Mannitol 50 mg/mL, pH 4.0-6.0, after 10 days, both accelerated (room temperature) and refrigerated conditions)	Potency (Methionine, 3 mg/mL + POLOXAMER 188, 3 mg/mL, Mannitol 50 mg/mL, pH 5.0-6.5, stable after 360 days)	Potency (Methionine, 3 mg/mL, Mannitol 50 mg/mL, pH 4.0-6.0, stable after 365 days)	Potency (Cysteine, 2 mg/mL, Mannitol 50 mg/mL, pH 4.5-6.5, after 60 days)	label amount remaining intact (Cysteine, 2 mg/mL, Mannitol 50 mg/mL, pH 4.5-6.5, day 90)	Potency (Methionine, 2 mg/mL, Mannitol 50 mg/mL, pH 4.5-6.5, stable after 180 days)
SYSMEHFRWGKPVGKKRRPVKVYPNGAEDELAEAFPLEF (Sythetic construct) [Synthetic porcine]	Failed^1 after	Failed after	Failed after	Failed after	Passed, (“Passed” refers to the potency after the testing being within the 80-125% range required by the U.S. Pharmacopeia.)	Passed, (“Passed” refers to the potency after the testing being within the 80-125% range required by the U.S. Pharmacopeia.)	–	–	–
SYSMEHFRWGKPVGKKRRPVKVYPNGAEDESAEAFPLEF [Recombinant human]	–	–	–	–	–	–	Failed after	^3Followed by even more substantial failure by day 90 (when only about 16.9% of the label amount remaining intact).	Passed^4, (“Passed” refers to the potency after the testing being within the 80-125% range required by the U.S. Pharmacopeia.)
